Data reported in article PMC10917784.

Target: Trastuzumab
Experiment: SPR; antibody constructs immobilised on a Protein L Series S CM5 chip, increasing concentrations of Fc receptor flushed; Biacore 8K+, 25 °C, neutral pH; steady state affinity model
Details: remark: other sources report otherwise

Kd: 543 nM
B1: human FcγRIIa ECD, P12318 34-217 (receptor)
chain: QAAAPPKAVLKLEPPWINVLQEDSVTLTCQGARSPESDSIQWFHNGNLIPTHTQPSYRFKANNNDSGEYTCQTGQTSLSDPVHLTVLSEWLVLQTPHLEFQEGETIMLRCHSWKDKPLVKVTFFQNGKSQKFSHLDPTFSIPQANHSHSGDYHCTGNIGYTLFSSKPVTITVQVPSMGSSSPMG
